From patent US12077763B2, “RNA-based control of powdery mildew” (Greenlight Biosciences, Inc., priority 2021, dated 2024)

Test system: E. necator
Test: Leaf disc assay, dry inoculum (settling tower), decrease in disease severity / hyphal growth (Example 2)
Details: decrease in disease severity (hyphal growth) relative to untreated control, value ± SE; for % decrease =/− SE TP2: time point 2; for % decrease =/− SE TP1: time point 1 (untreated control hyphal growth ≥50%)

| Molecule | % decrease =/− SE TP2 [%] | % decrease =/− SE TP1 [%] |
| --- | --- | --- |
| GS3601 (nucleic acid) sense: CAAUUGCUGCAGCAUGACCUUCUCUUGGAACCGGUAUAUAUCCUAUGCAGUCCAAAAGAGUCCAGGAGUUCGGUAUCGGAUCAUAACACCAAACAUCGUUAUACCAUUGAAGACCAUUUGUUCCGCCAAACAAGUAAAGCUUUUCAUUAUAUGUCACAACUGAGUGAUUUGUUCUAGCUGAUGGUAUUUGUCCUACUGGGGGUCCACCAUCCUCACUAUUUUUAAUGAGAAUUUCCCACCUGUUCGUAGGGACUUGCAAAAGAUUCAAAUCAAAAGCCACAAGGUCAUUCAUAAAAUAACCCUCUACUUGCCCCCCGAAUACGUAGAUUUUAGACCCUAGUAUAUUGAGAGAAUGACCAUAACGCCCCGCGGGCCGUGGCCCGGCAGGUAUAGCUCUGGA antisense: UCCAGAGCUAUACCUGCCGGGCCACGGCCCGCGGGGCGUUAUGGUCAUUCUCUCAAUAUACUAGGGUCUAAAAUCUACGUAUUCGGGGGGCAAGUAGAGGGUUAUUUUAUGAAUGACCUUGUGGCUUUUGAUUUGAAUCUUUUGCAAGUCCCUACGAACAGGUGGGAAAUUCUCAUUAAAAAUAGUGAGGAUGGUGGACCCCCAGUAGGACAAAUACCAUCAGCUAGAACAAAUCACUCAGUUGUGACAUAUAAUGAAAAGCUUUACUUGUUUGGCGGAACAAAUGGUCUUCAAUGGUAUAACGAUGUUUGGUGUUAUGAUCCGAUACCGAACUCCUGGACUCUUUUGGACUGCAUAGGAUAUAUACCGGUUCCAAGAGAAGGUCAUGCUGCAGCAAUUG | 2 ± 3 |  |
| GS3612 (nucleic acid) sense: AUGAGCUGGUCUUUCAGUGGAAUAUCUGUCAAUAUUACAGCUUGAUAUGAAUCAAACUGGGAGAGAUCAGAAACUAAGCUUGUGGAGCUGUGAAUCUUAACAGGGGUGUAAGCAUUUAGUUCCGAAACUCGUUGAGCUGAGACAAUAUCUCUAGGUUUUCCUAUAUCUUCUGGGUUAAGAAAGAAUUGAGAUGAUAGGUCAGCGAUAGUUGCGGGAGCGGGAUCGUAUAAUGUUAGACUUUUAACUCCAGCCAGAGCUAUAUUCUUAGCUAUUUCGAUACCAAGACCUUUCAAGCCAAUAAUAAGAAUAUUCGAUGCACUCAUUCGUUUCAUAGCCUCGUGUCCAAGAACGUAGAGUUGCCUACUGUAUAAAGACUCAUCGAUAACAUUAUUAUUUUCUU antisense: AAGAAAAUAAUAAUGUUAUCGAUGAGUCUUUAUACAGUAGGCAACUCUACGUUCUUGGACACGAGGCUAUGAAACGAAUGAGUGCAUCGAAUAUUCUUAUUAUUGGCUUGAAAGGUCUUGGUAUCGAAAUAGCUAAGAAUAUAGCUCUGGCUGGAGUUAAAAGUCUAACAUUAUACGAUCCCGCUCCCGCAACUAUCGCUGACCUAUCAUCUCAAUUCUUUCUUAACCCAGAAGAUAUAGGAAAACCUAGAGAUAUUGUCUCAGCUCAACGAGUUUCGGAACUAAAUGCUUACACCCCUGUUAAGAUUCACAGCUCCACAAGCUUAGUUUCUGAUCUCUCCCAGUUUGAUUCAUAUCAAGCUGUAAUAUUGACAGAUAUUCCACUGAAAGACCAGCUCAU |  | 22 ± 6 |
| GS3613 (nucleic acid) sense: UGUAGCCGCAACAGUUUCAGCUGUCCCAGCUAGUCCUUCUGAUUGAAGUUUAUCAUUAGUAAUCCCUUUAGCGAUGGCGCCAUUAGUACCUUCGGUUGAGUUGCCAACAUUAGAUACUUCGCCAGCACCAUCAGAUACAUGUGUAGUUAAUUCUUCAGAGGUCUUGUCCGGACUAUCUAUUGCGAUCUUUACUGCAAUCUCACGACCUUGAACUUCUUUUCCAUUCAUUUCGGCAACAGCCCUAUUUUGAAGUUCAUUAGAUGCUAAGUUCACAAAGCCAAACCCACGGCCUUUCCGAGGUUCGUUGCGGGCCUGAAGCUUUUUAACCAUGAAUUUUGGAAUAGGACGCA antisense: UGCGUCCUAUUCCAAAAUUCAUGGUUAAAAAGCUUCAGGCCCGCAACGAACCUCGGAAAGGCCGUGGGUUUGGCUUUGUGAACUUAGCAUCUAAUGAACUUCAAAAUAGGGCUGUUGCCGAAAUGAAUGGAAAAGAAGUUCAAGGUCGUGAGAUUGCAGUAAAGAUCGCAAUAGAUAGUCCGGACAAGACCUCUGAAGAAUUAACUACACAUGUAUCUGAUGGUGCUGGCGAAGUAUCUAAUGUUGGCAACUCAACCGAAGGUACUAAUGGCGCCAUCGCUAAAGGGAUUACUAAUGAUAAACUUCAAUCAGAAGGACUAGCUGGGACAGCUGAAACUGUUGCGGCUACA |  | 11 ± 3 |
| GS3606 (nucleic acid) sense: UAAGGUUGUGUCGGACAACACGAUUCAUACGAGCACUCCCGUCAUCUAAAUCAUCAUCUGCGAGUACAAUUAAAACAGUAUCCUUUCGCUUCUUCCCCUUAACUAGGACAGUAUCUCCACGAAAAAGCUGCAAAGUUUCCAUGGUAUUAUUUGACAGUGCAAUAACAGAGUUAUCAUCGUUGAUGGCAUCUGUUACAAUUAAGGAAUUUGGCUUUUUCUUCUUUUUUAAAAUAGCAGUCGCAGUAGCAUCAAUCGUCUUUUGUUCAGCGCCAGAGGCAUCCUCAAGUUUAACUGUUUUUU antisense: AAAAAACAGUUAAACUUGAGGAUGCCUCUGGCGCUGAACAAAAGACGAUUGAUGCUACUGCGACUGCUAUUUUAAAAAAGAAGAAAAAGCCAAAUUCCUUAAUUGUAACAGAUGCCAUCAACGAUGAUAACUCUGUUAUUGCACUGUCAAAUAAUACCAUGGAAACUUUGCAGCUUUUUCGUGGAGAUACUGUCCUAGUUAAGGGGAAGAAGCGAAAGGAUACUGUUUUAAUUGUACUCGCAGAUGAUGAUUUAGAUGACGGGAGUGCUCGUAUGAAUCGUGUUGUCCGACACAACCUUA | 9 ± 7 | 3 ± 6 |
| GS3610 (nucleic acid) sense: AUCAAACUGGGAGAGAUCAGAAACUAAGCUUGUGGAGCUGUGAAUCUUAACAGGGGUGUAAGCAUUUAGUUCCGAAACUCGUUGAGCUGAGACAAUAUCUCUAGGUUUUCCUAUAUCUUCUGGGUUAAGAAAGAAUUGAGAUGAUAGGUCAGCGAUAGUUGCGGGAGCGGGAUCGUAUAAUGUUAGACUUUUAACUCCAGCCAGAGCUAUAUUCUUAGCUAUUUCGAUACCAAGACCUUUCAAGCCAAUAAUAAGAAUAUUCGAUGCACUCAUUCGUUUCAUAGCCUCGUGUCCAAGAAC antisense: GUUCUUGGACACGAGGCUAUGAAACGAAUGAGUGCAUCGAAUAUUCUUAUUAUUGGCUUGAAAGGUCUUGGUAUCGAAAUAGCUAAGAAUAUAGCUCUGGCUGGAGUUAAAAGUCUAACAUUAUACGAUCCCGCUCCCGCAACUAUCGCUGACCUAUCAUCUCAAUUCUUUCUUAACCCAGAAGAUAUAGGAAAACCUAGAGAUAUUGUCUCAGCUCAACGAGUUUCGGAACUAAAUGCUUACACCCCUGUUAAGAUUCACAGCUCCACAAGCUUAGUUUCUGAUCUCUCCCAGUUUGAU | 5 ± 6 | 10 ± 6 |
| GS3609 (nucleic acid) sense: CUGUCAAUAUUACAGCUUGAUAUGAAUCAAACUGGGAGAGAUCAGAAACUAAGCUUGUGGAGCUGUGAAUCUUAACAGGGGUGUAAGCAUUUAGUUCCGAAACUCGUUGAGCUGAGACAAUAUCUCUAGGUUUUCCUAUAUCUUCUGGGUUAAGAAAGAAUUGAGAUGAUAGGUCAGCGAUAGUUGCGGGAGCGGGAUCGUAUAAUGUUAGACUUUUAACUCCAGCCAGAGCUAUAUUCUUAGCUAUUUCGAUACCAAGACCUUUCAAGCCAAUAAUAAGAAUAUUCGAUGCACUCAUUCGUUUCAUAGCCUCGUGUCCAAGAACGUAGAGUUGCCUACUGUAUAAAGAC antisense: GUCUUUAUACAGUAGGCAACUCUACGUUCUUGGACACGAGGCUAUGAAACGAAUGAGUGCAUCGAAUAUUCUUAUUAUUGGCUUGAAAGGUCUUGGUAUCGAAAUAGCUAAGAAUAUAGCUCUGGCUGGAGUUAAAAGUCUAACAUUAUACGAUCCCGCUCCCGCAACUAUCGCUGACCUAUCAUCUCAAUUCUUUCUUAACCCAGAAGAUAUAGGAAAACCUAGAGAUAUUGUCUCAGCUCAACGAGUUUCGGAACUAAAUGCUUACACCCCUGUUAAGAUUCACAGCUCCACAAGCUUAGUUUCUGAUCUCUCCCAGUUUGAUUCAUAUCAAGCUGUAAUAUUGACAG | 9 ± 6 | 13 ± 8 |
| GS3602 (nucleic acid) sense: CUUGGAACCGGUAUAUAUCCUAUGCAGUCCAAAAGAGUCCAGGAGUUCGGUAUCGGAUCAUAACACCAAACAUCGUUAUACCAUUGAAGACCAUUUGUUCCGCCAAACAAGUAAAGCUUUUCAUUAUAUGUCACAACUGAGUGAUUUGUUCUAGCUGAUGGUAUUUGUCCUACUGGGGGUCCACCAUCCUCACUAUUUUUAAUGAGAAUUUCCCACCUGUUCGUAGGGACUUGCAAAAGAUUCAAAUCAAAAGCCACAAGGUCAUUCAUAAAAUAACCCUCUACUUGCCCCCCGAAUACGUAGAUUUUAGACCCUAGUAUAUUGAGAGAAUGACCAUAACGCCCCGCGGG antisense: CCCGCGGGGCGUUAUGGUCAUUCUCUCAAUAUACUAGGGUCUAAAAUCUACGUAUUCGGGGGGCAAGUAGAGGGUUAUUUUAUGAAUGACCUUGUGGCUUUUGAUUUGAAUCUUUUGCAAGUCCCUACGAACAGGUGGGAAAUUCUCAUUAAAAAUAGUGAGGAUGGUGGACCCCCAGUAGGACAAAUACCAUCAGCUAGAACAAAUCACUCAGUUGUGACAUAUAAUGAAAAGCUUUACUUGUUUGGCGGAACAAAUGGUCUUCAAUGGUAUAACGAUGUUUGGUGUUAUGAUCCGAUACCGAACUCCUGGACUCUUUUGGACUGCAUAGGAUAUAUACCGGUUCCAAG | 7 ± 8 | 5 ± 6 |
| GS3603 (nucleic acid) sense: AGUCCAAAAGAGUCCAGGAGUUCGGUAUCGGAUCAUAACACCAAACAUCGUUAUACCAUUGAAGACCAUUUGUUCCGCCAAACAAGUAAAGCUUUUCAUUAUAUGUCACAACUGAGUGAUUUGUUCUAGCUGAUGGUAUUUGUCCUACUGGGGGUCCACCAUCCUCACUAUUUUUAAUGAGAAUUUCCCACCUGUUCGUAGGGACUUGCAAAAGAUUCAAAUCAAAAGCCACAAGGUCAUUCAUAAAAUAACCCUCUACUUGCCCCCCGAAUACGUAGAUUUUAGACCCUAGUAUAUUGA antisense: UCAAUAUACUAGGGUCUAAAAUCUACGUAUUCGGGGGGCAAGUAGAGGGUUAUUUUAUGAAUGACCUUGUGGCUUUUGAUUUGAAUCUUUUGCAAGUCCCUACGAACAGGUGGGAAAUUCUCAUUAAAAAUAGUGAGGAUGGUGGACCCCCAGUAGGACAAAUACCAUCAGCUAGAACAAAUCACUCAGUUGUGACAUAUAAUGAAAAGCUUUACUUGUUUGGCGGAACAAAUGGUCUUCAAUGGUAUAACGAUGUUUGGUGUUAUGAUCCGAUACCGAACUCCUGGACUCUUUUGGACU | 7 ± 5 |  |
